Blank lines part the entries; values can stand above or below the binder they belong to.
Experiments:
[1] = target: GPC3 core (sGPC3-His) protein (human) (UniProt P51654); experiment: competition ELISA on plate-bound sGPC3; unlabeled GT607 (100-fold) against competitor biotin-labeled GT114
[2] = target: GPC3 core (sGPC3-His) protein (human) (UniProt P51654); experiment: competition ELISA on plate-bound sGPC3; unlabeled GT607 (100-fold) against competitor biotin-labeled GT30; signal of the labeled antibody
[3] = target: GPC3 core (sGPC3-His) protein (human) (UniProt P51654); experiment: competition ELISA on plate-bound sGPC3; unlabeled GT607 (100-fold) against competitor biotin-labeled GT607; signal of the labeled antibody
[4] = target: T1, AW5, C-terminally His-tagged recombinant product of positions 1 to 357 of GPC3 (human, UniProt P51654 25-357); experiment: Western blot, pellets of CHO cells expressing the product
T1 construct: Expressed in CHO cells, cell pellets used in Western blot; The range is as printed and starts at position 1; also called AW5 (1-357); not shown: C-terminal His tag
T1 sequence (P51654 25-357): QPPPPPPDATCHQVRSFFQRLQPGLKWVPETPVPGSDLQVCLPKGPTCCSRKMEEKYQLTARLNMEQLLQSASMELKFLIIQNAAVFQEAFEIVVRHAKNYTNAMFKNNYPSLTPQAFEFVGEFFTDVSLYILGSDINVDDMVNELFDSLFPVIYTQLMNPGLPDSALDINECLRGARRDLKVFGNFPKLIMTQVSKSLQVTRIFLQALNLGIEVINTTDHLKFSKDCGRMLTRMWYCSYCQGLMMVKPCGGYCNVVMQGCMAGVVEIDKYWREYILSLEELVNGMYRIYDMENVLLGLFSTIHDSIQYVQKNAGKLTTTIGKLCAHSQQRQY

[5] = target: GPC3 core (sGPC3-His) protein (human) (UniProt P51654); experiment: competition ELISA on plate-bound sGPC3; unlabeled GT165 (100-fold) against competitor biotin-labeled GT607

Sequence of GPC3 core (sGPC3-His) protein (human) (P51654 25-563 S495A/S509A): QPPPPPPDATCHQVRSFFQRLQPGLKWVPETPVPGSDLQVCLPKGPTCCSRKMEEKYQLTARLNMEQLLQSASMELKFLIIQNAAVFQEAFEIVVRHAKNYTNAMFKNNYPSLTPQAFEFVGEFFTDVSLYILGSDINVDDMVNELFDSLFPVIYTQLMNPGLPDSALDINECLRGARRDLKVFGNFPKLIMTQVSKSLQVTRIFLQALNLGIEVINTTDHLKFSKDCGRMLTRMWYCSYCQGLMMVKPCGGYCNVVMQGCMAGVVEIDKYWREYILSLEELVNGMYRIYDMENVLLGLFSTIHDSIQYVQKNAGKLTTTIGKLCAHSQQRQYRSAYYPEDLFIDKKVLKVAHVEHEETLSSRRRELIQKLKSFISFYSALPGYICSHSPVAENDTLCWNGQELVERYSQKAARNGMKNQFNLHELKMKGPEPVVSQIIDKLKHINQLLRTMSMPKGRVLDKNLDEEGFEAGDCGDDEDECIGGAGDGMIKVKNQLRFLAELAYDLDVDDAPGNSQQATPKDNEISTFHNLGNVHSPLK

- Inhibitory effect (%) [1]: 51%
- O.D. 450 [2]: 2.06 O.D. 450
- O.D. 450 [3]: 0.135 O.D. 450
B1: GT607 antibody (antibody, IgG1, V domains shown)
VH: EVQLVESGGDVVRPGGSLKLSCAASGFTFSSYGMSWVRQLPDKRLEWVASVGNGGSYRYYPENLKGRFTISRDNTKNTLYLQISGLKSEDTAIYYCARRGAFPYFDVWGAGTTVTVSS
VL: QIVLTQSPAIMSASPGEKVTLACSASSSVTYMHWYQQKSGTSPKRWIYETSKLASGVPPRFSGSGSGTSYSLTISTMEAEDAATYYCQQWSSNPLTFGAGTKLELKR

- binding result [4]: no binding
- Inhibitory effect (%) [5]: 43%
B2: GT165 antibody (antibody, IgG1, V domains shown)
VH: QVQLQQSGAELVGPGASVKISCKAFGYTFTNHHINWVKQRPGQGLDWIGYINPYNDYTNYNQKFKGKATLTVDKSSSTAYMELSSLTSEDSAVYYCARSDPAWFAYWGQGTLVTVSA
VL: DIQMTQSPSSLSASLGGKVTITCKASQDINKNIAWYQHKPGKGPRLLIWYTYTLQPGIPSRFSGSGSGRDYSFSISNLEPEDIATYYCLQYDNLPFTFGTGTKLEIKR

— patent publication EP3088890B1 (Chugai Seiyaku Kabushiki Kaisha, dated 2020)
